Results on 6 molecules are retold here after patent US7527943B2, “Compositions of orthogonal glutamyl-tRNA and aminoacyl-tRNA synthetase pairs and uses thereof” (The Scripps Research Institute, priority 2003, dated 2009).

The subject of data set [1] is β-lactamase reporter gene containing an amber mutation at the permissive site Ala184. It counts as cell-based, E. coli. The conditions noted are these: for ampicillin IC50 fold greater with AE(GC) tRNA than with AE(GU) tRNA: same synthetase co-expressed. On the procedure:
Ampicillin IC50 value measurements: To examine the orthogonality of tRNAs, 10 μL of E. coli DH10B cells (1 cfu/μL) carrying a tRNA-expressing plasmid were plated on a series of LB agar plates containing chloramphenicol and varying concentrations of ampicillin. To measure the IC50 values for cells carrying both tRNA- and synthetase-expressing plasmids, cells were plated on LB agar plates containing chloramphenicol, kanamycin, and varying concentrations of ampicillin. In the initial series, cells were plated on five ampicillin concentrations varying from 0 to 1000 μg/mL and incubated overnight at 37° C. In subsequent series, cells were plated on a narrower ampicillin concentration range surrounding the value initial ampicillin IC50 value estimate. […] Measurements were made in duplicate or triplicate for each cell strain.
Orthogonality of tRNAs: To test the activity and cross-reactivity of the AE(GU), AQ(GU), and AQ(GC) tRNAs, their genes were inserted into plasmid pACKO-A184TAG. E. coli cells were transformed with the resulting plasmids, pAC-AE(GU), pAC-AQ(GU), and pAC-AQ(GC), and the ampicillin IC50 values for the cells were assayed. The tRNA-expressing pAC-based plasmids carry a β-lactamase reporter gene containing an amber mutation at the permissive site Ala184, which serves as a useful reporter for amber codon suppression. Acylation of an amber suppressor tRNA causes the incorporation of the activated amino acid at position 184 of β-lactamase, resulting in suppression of the amber stop codon, production of active full-length β-lactamase and resistance to ampicillin. Because an orthogonal tRNA should not cross-react with endogenous aminoacyl-tRNA synthetases, strains transformed with an orthogonal suppressor tRNA alone should survive only on low concentrations of ampicillin. To assess the orthogonality of designed tRNAs, E. coli transformants were plated on LB agar plates containing varying concentrations of ampicillin (FIG. 2).

In a further data set the test system is whole halobacterial tRNA. Put plainly: in vitro aminoacylation assay with [3H]-glutamic acid, whole halobacterial tRNA. It counts as biochemical, Halobacterium sp. NRC-1. To be noted: 750 nM synthetase, 15 minutes at 37° C. The protocol:
(§1) In vitro aminoacylation assays: Reactions were carried out as described previously (see, e.g., Hoben, P. and Soll, D. (1985) Glutaminyl-tRNA synthetase of Escherichia coli. Methods Enzymol., 113:55-59). Each 20-μL reaction contained 50 mM Tris-HCl (pH 7.5), 30 mM KCl, 20 mM MgCl2, 0.1 mg/mL BSA, 5 mM glutathione, 2.5 mM ATP, 100 nM 1-[G-^3H]Glutamic acid (Amersham), 750 nM aminoacyl-tRNA synthetase, and 40 μM whole halobacterial tRNA. Reactions were allowed to proceed for 15 minutes at 37° C.
Orthogonality of archaeal glutamyl-tRNA synthetases in E. coli: The ampicillin IC50 measurements described above provide insights into the orthogonality of consensus-designed tRNAs, but provide no information about the orthogonality of archaeal glutamyl-tRNA synthetases in E. coli. To investigate synthetase orthogonality, the AfERS, MnERS, MtERS, and PhERS genes were inserted into a protein overexpression vector. E. coli glutamyl-tRNA synthetase (EcERS) was inserted into the same vector for use as a control. Synthetases were overexpressed in E. coli, purified to homogeneity, and used in an in vitro aminoacylation assay with whole tRNA prepared from either E. coli or the halophilic archaebacterium Halobacterium sp. NRC-1. […] In these experiments, it is unclear why AfERS and MmERS could not aminoacylate whole halobacterial tRNA in vitro (≦5 pmol/L). Without being limited to one theory, it is possible that the enzyme purification and/or assay conditions employed were deleterious to the aminoacylation activity of AfERS and MmERS. Another possibility is that subtle differences in tRNA identity elements might preclude recognition of a given archaeal tRNA^Glu by all archaeal glutamyl-tRNA synthetases. To test the latter, the activity of MmERS was investigated using the in vitro aminoacylation assay with whole tRNA derived from E. coli expressing the AE(GC) tRNA.

For data set [2], the system named is whole tRNA derived from E. coli expressing the AE(GC) tRNA. Put plainly: in vitro aminoacylation assay with whole tRNA from E. coli expressing AE(GC) tRNA. It counts as biochemical. The protocol:
as §1
(§2) Orthogonality of archaeal glutamyl-tRNA synthetases in E. coli: The ampicillin IC50 measurements described above provide insights into the orthogonality of consensus-designed tRNAs, but provide no information about the orthogonality of archaeal glutamyl-tRNA synthetases in E. coli. To investigate synthetase orthogonality, the AfERS, MnERS, MtERS, and PhERS genes were inserted into a protein overexpression vector. E. coli glutamyl-tRNA synthetase (EcERS) was inserted into the same vector for use as a control. Synthetases were overexpressed in E. coli, purified to homogeneity, and used in an in vitro aminoacylation assay with whole tRNA prepared from either E. coli or the halophilic archaebacterium Halobacterium sp. NRC-1. […] In these experiments, it is unclear why AfERS and MmERS could not aminoacylate whole halobacterial tRNA in vitro (≦5 pmol/L). […]

For another data set, the system named is whole E. coli tRNA. Kind of data set: in vitro aminoacylation assay with [3H]-glutamic acid, whole E. coli tRNA. It counts as biochemical. To be noted: 750 nM synthetase, 15 minutes at 37° C. The protocol: as §1, §2
The mark [3] stands for this setting: synthetase co-expressed with AE(GU) tRNA.

B1: AfERS: glutamyl-tRNA synthetase from A. fulgidus (protein, listed as Archaeoglobus fulgidus)
chain: VKEVIMKYVVQNAAKYGKASEKAVMGKVMAENPELRKKAKEVLELVKECITEFEALSEEVRKELIKKYSMDSEAKRELETKKLPELEGAEKGKVVMRFAPNPNGPPTLGSARGIIVNGEYAKMYEGKYIIRFDDTDPRTKRPMIEAYEWYLEDIEWLGYKPDEVIYASRRIPIYYDYARKLIEMGKAYTCFCSQEEFKKFRDSGEECPHRNISVEDTLEVWERMLEGDYEEGEVVLRIKTDMRHKDPAIRDWVAFRIIKESHPLVGDKYVVYPTLDFESAIEDHLLGITHIIRGKDLIDSERRQRYIYEYFGWIYPITKHWGRVKIFEFGKLSTSSIKKDIERGKYEGWDDPRLPTLRAFRRRGFEPEAIKSFFLSLGVGENDVSVSLKNLYAENRKIIDRKANRYFFIWGPVKIEIVNLPEKKEVELPLNPHTGEKRRLKGERTIYVTKDDFERLKGQVVRLKDFCNVLLDEKAEFMGFELEGVKKGKNIIHWLPESEAIKGKVIGEREAEGLVERNAVRDVGKVVQFERFAFCKVESADEELVAVYTHP
For B1, in data set [1] (setting [3]), the “ampicillin IC50 fold higher than cells expressing AE(GU) alone” value came to 7 fold.

B2: MtERS: glutamyl-tRNA synthetase from M. thermoautotrophicum (protein, listed as Methanobacterium thermoautotrophicum)
chain: VVPVEDLVYRYALLNAVKHRGRANPGAVMGAVMSNEPELRKMAPQVKEAVEAAVERVNSLSPEEQQQEMERLGLEITERKQKKRKGLRELAGVKGEVVLRFAPNPSGPLHIGHARAAILNHEYARKYDGRLILRIEDTDPRRVDPEAYDMIPADLEWLGVEWDETVIQSDRMETYYEYTEKLIERGGAYVCTCRPEEFRELKNRGEACHCRSLGFRENLQRWREMFEMKEGSAVVRVKTDLNHPNPAIRDWVSMRIVEAEHPRTGTRYRVYPMMNFSVAVDDHLLGVTHVLRGKDHLANREKQEYLYRHLGWEPPEFIHYGRLKMDDVALSTSGAREGILRGEYSGWDDPRLGTLRAIARRGIRPEAIRKLMVEIGVKIADSTMSWKKIYGLNRSILEEEARRYFFAADPVKLEVVGLPGPVRVERPLHPDHPEIGNRVLELRGEVYLPGDDLGEGPLRLIDAVNVIYSGGELRYHSEGIEEARELGASMIHWVPAESALEAEVIMPDASRVRGVIEADASELEVDDVVQLERFGFARLDSAGPGMVFYYAHK
On to B2, for which the “ampicillin IC50 fold higher than cells expressing AE(GU) alone” value in data set [1] (setting [3]) is recorded as 6 fold. Besides, the “aminoacylation of whole archaeal (halobacterial) tRNA with [3H]-glutamic acid” value (from here on “aminoacylation of whole archaeal”) with whole halobacterial tRNA worked out at 530 pmol/L.

B3: MmERS: glutamyl-tRNA synthetase from M. mazei (protein, listed as Methanosarcina mazeii)
chain: MTLSPEDIKIIEKYALQNAVKYGKAPQPKAVMGKVMGECPQLRADPSGVSAALENIVSEIAKGNPEAWEARLSEIAPELIEALSVKKEPDKGLKPLEGAETGKVVMRFAPNPNGPATLGSSRGMVVNSEYVKVYKGKFILRFDDTDPDIKRPMLEAYDWYMDDFKWLGVVPDQVVRASDRFPIYYDYARKLIEMGKAYVCFCKGEDFKRLKDSKKACPHRDTDPEENLMHWEKMLAGEYEDQQAVLRIKTDIEHKDPALRDWGAFRIRKMSHPRPEIGNKYIVWPLLDFAGAIEDHELGMTHIIRGKDLIDSEKRQTYIYKYFGWTYPKTTHWGRVKIHEFGKFSTSTLRKAIESGEYSGWDDPRLPTIRAIRRRGIRAEALKKFMIEMGVGMTDVSISMESLYAENRKIVDPVANRYFFVWNPVELEIEGMKPVVAKVPRHPTDHARGMREISIENKVLVCAEDIEKLNVGSVLRLKDLCNVEITSLSPLRVKRSETSLEDLKKAKGKIIHWVPVDGIPVKVCGPEGDIEGTGERGIETELDNIVQFERFGFCRIDAVDGENVVAYFAHK
Take B3: the “ampicillin IC50 fold greater with AE(GC) tRNA than with AE(GU) tRNA” value in data set [1] worked out at 4.5 fold. Besides, in data set [1] (setting [3]), the “ampicillin IC50 fold higher than cells expressing AE(GU) alone” value came out at 20 fold, the “ampicillin IC50 fold lower than M. jannaschii-derived tyrosine pair” value is given as 4.5 fold and the “ampicillin IC50 fold lower than M. thermoautotrophicum-derived leucine pair” value came to 10 fold. The aminoacylation activity result in data set [2] is recorded as “no activity was observed”.

B4: AE(GC): archaeal glutamyl consensus-derived amber suppressor tRNA, GC base pair at position 10-28 (nucleic acid)
chain: GCCCCGGUGGUGUAGCCCGGCCAAGCACGCGGGCCUCUAAAGCCCGCGACCCGGGUUCAAAUCCCGGCCGGGGCACCA
modifications: chemistry not fully specified
As for B4, the “ampicillin IC50 fold increase relative to cells expressing AE(GU) tRNA alone” value in data set [1] (tRNA alone, no synthetase) amounted to 4 fold.

B5: EcERS: E. coli glutamyl-tRNA synthetase, used as a control (protein, UniProt P04805 1-471, looked up)
Glutamate--tRNA ligase: MKIKTRFAPSPTGYLHVGGARTALYSWLFARNHGGEFVLRIEDTDLERSTPEAIEAIMDGMNWLSLEWDEGPYYQTKRFDRYNAVIDQMLEEGTAYKCYCSKERLEALREEQMAKGEKPRYDGRCRHSHEHHADDEPCVVRFANPQEGSVVFDDQIRGPIEFSNQELDDLIIRRTDGSPTYNFCVVVDDWDMEITHVIRGEDHINNTPRQINILKALKAPVPVYAHVSMINGDDGKKLSKRHGAVSVMQYRDDGYLPEALLNYLVRLGWSHGDQEIFTREEMIKYFTLNAVSKSASAFNTDKLLWLNHHYINALPPEYVATHLQWHIEQENIDTRNGPQLADLVKLLGERCKTLKEMAQSCRYFYEDFAEFDADAAKKHLRPVARQPLEVVRDKLAAITDWTAENVHHAIQATADELEVGMGKVGMPLRVAVTGAGQSPALDVTVHAIGKTRSIERINKALDFIAERENQQ
On to B5, for which, in the data set with whole halobacterial tRNA, the “aminoacylation of whole archaeal” value was found to be 1.7 pmol/L. Further, in the data set with whole E. coli tRNA, the “aminoacylation of whole E. coli tRNA with [3H]-glutamic acid” value is listed as 14,000 pmol/L.

B6: PhERS: glutamyl-tRNA synthetase from P. horikoshii (protein, listed as Pyrococcus horikoshii)
chain: MDVEKIALKHALINAIEHGGKANLKAVIGKVLGENPELRPRAKEIIPIINKVVEEVNSLARDEQLEKLKDIYPEYFEKKEEKKEKKGLPLLPKAEKGKVVTRFAPNPDGAFHLGNARAAILSYEYAKMYGGKFILRFDDTDPKVKRPEPIFYKMIIEDLEWLGIKPDEIVYASDRLEIYYKYAEELIKMGKAYVCTCPPEKFRELRDKGIPCPHRDEPVEVQLERWKKMLNGEYKEGEAVVRIKTDLNHPNPAVRDWPALRIIDNPNHPRTGNKYRVWPLYNFASAIDDHELGVTHIFRGQEHAENETRQRYIYEYFGWEYPVTIHHGRLSIEGVVLSKSKTRKGIEEGKYLGWDDPRLGTIRALRRRGILPEAIKELIIEVGLKKSDATISWENLAAINRKLVDPIANRYFFVADPIPMEVEGAPEFIAEIPLHPDHPERGVRRLKFTPERPVYVSKDDLNLLKPGNFVRLKDLFNVEILEVGDKIRARFYSFEYEIAKKNRWKMVHWVTEGRPCEVIIPEGDELVVRKGLLEKDAKVQVNEIVQFERFGFVRIDRIEGDKVIAIYAHK
Take B6: in data set [1], the “ampicillin IC50 fold greater with AE(GC) tRNA than with AE(GU) tRNA” value is listed as ~3.5 fold. In data set [1] (setting [3]), the “ampicillin IC50 fold higher than cells expressing AE(GU) alone” value turned out to be 12 fold. For the same molecule, the “amber suppression efficiency fold less than that of the tyrosyl-tRNA synthetase” value in data set [1] (together with the AE(GC) tRNA in E. coli) is recorded as ~2 fold. In addition, the “aminoacylation of whole archaeal” value in the data set with whole halobacterial tRNA is given as 1100 pmol/L.
